Reference: patent US12679878B2, “CRF2 receptor agonists and their use in therapy” (SANOFI, priority 2020, dated 2026)
Starred links: 1 amine or outer side, 2 acyl side, 3 side chain; linkers in the order of their positions; H or OH if unused. Non-standard residues stand in square brackets, D forms with d. Groups on a side chain read outwards from the residue. No end group written: not given here. *: point of attachment. C18 diacid = O=C(O)CCCCCCCCCCCCCCCCC(=O)*; γGlu = O=C(O)[C@H](CCC(=O)[*:2])N[*:1]; AEEA = NCCOCCOCC(=O)O; Aib = CC(C)(N)C(=O)O

Biological target: human corticotropin-releasing factor 2α (CRF2 α receptor) (human), Q13324
Experiment: cell-based or functional assay

Sequence of human corticotropin-releasing factor 2α (CRF2 α receptor) (human), Q13324 (Q13324 20-411): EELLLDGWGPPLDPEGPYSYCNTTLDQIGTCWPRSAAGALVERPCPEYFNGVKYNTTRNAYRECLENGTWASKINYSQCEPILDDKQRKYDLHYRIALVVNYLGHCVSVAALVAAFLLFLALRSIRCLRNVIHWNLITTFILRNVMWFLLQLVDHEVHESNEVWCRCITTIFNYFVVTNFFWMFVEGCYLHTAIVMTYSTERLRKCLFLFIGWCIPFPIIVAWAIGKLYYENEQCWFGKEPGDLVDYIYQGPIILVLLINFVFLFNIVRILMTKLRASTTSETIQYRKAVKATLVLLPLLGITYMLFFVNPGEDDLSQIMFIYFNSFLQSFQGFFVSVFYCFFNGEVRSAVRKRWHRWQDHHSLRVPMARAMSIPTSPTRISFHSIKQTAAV

Row | EC50 [nM], 0% HSA [nM] | Binder
1 | 0.48 | IVLSLDVPIKLK([AEEA-AEEA-γGlu-C18 diacid])QILLKQERQKKQRQQAETN[Aib]QILAQV-NH2 (N-terminus assumed; SMILES CC[C@H](C)[C@H](N)C(=O)N[C@H](C(=O)N[C@@H](CC(C)C)C(=O)N[C@@H](CO)C(=O)N[C@@H](CC(C)C)C(=O)N[C@@H](CC(=O)O)C(=O)N[C@H](C(=O)N1CCC[C@H]1C(=O)N[C@H](C(=O)N[C@@H](CCCCN)C(=O)N[C@@H](CC(C)C)C(=O)N[C@@H](CCCCNC(=O)COCCOCCNC(=O)COCCOCCNC(=O)CC[C@H](NC(=O)CCCCCCCCCCCCCCCCC(=O)O)C(=O)O)C(=O)N[C@@H](CCC(N)=O)C(=O)N[C@H](C(=O)N[C@@H](CC(C)C)C(=O)N[C@@H](CC(C)C)C(=O)N[C@@H](CCCCN)C(=O)N[C@@H](CCC(N)=O)C(=O)N[C@@H](CCC(=O)O)C(=O)N[C@@H](CCCNC(=N)N)C(=O)N[C@@H](CCC(N)=O)C(=O)N[C@@H](CCCCN)C(=O)N[C@@H](CCCCN)C(=O)N[C@@H](CCC(N)=O)C(=O)N[C@@H](CCCNC(=N)N)C(=O)N[C@@H](CCC(N)=O)C(=O)N[C@@H](CCC(N)=O)C(=O)N[C@@H](C)C(=O)N[C@@H](CCC(=O)O)C(=O)N[C@H](C(=O)N[C@@H](CC(N)=O)C(=O)NC(C)(C)C(=O)N[C@@H](CCC(N)=O)C(=O)N[C@H](C(=O)N[C@@H](CC(C)C)C(=O)N[C@@H](C)C(=O)N[C@@H](CCC(N)=O)C(=O)N[C@H](C(N)=O)C(C)C)[C@@H](C)CC)[C@@H](C)O)[C@@H](C)CC)[C@@H](C)CC)C(C)C)C(C)C) [SEQ ID NO: 75]
2 | 13.4 | IVLSLDVPIGLK([AEEA-AEEA-γGlu-C18 diacid])QILLEQERQKKQRQQAETN[Aib]QILAQV-NH2 (N-terminus assumed; SMILES CC[C@H](C)[C@H](N)C(=O)N[C@H](C(=O)N[C@@H](CC(C)C)C(=O)N[C@@H](CO)C(=O)N[C@@H](CC(C)C)C(=O)N[C@@H](CC(=O)O)C(=O)N[C@H](C(=O)N1CCC[C@H]1C(=O)N[C@H](C(=O)NCC(=O)N[C@@H](CC(C)C)C(=O)N[C@@H](CCCCNC(=O)COCCOCCNC(=O)COCCOCCNC(=O)CC[C@H](NC(=O)CCCCCCCCCCCCCCCCC(=O)O)C(=O)O)C(=O)N[C@@H](CCC(N)=O)C(=O)N[C@H](C(=O)N[C@@H](CC(C)C)C(=O)N[C@@H](CC(C)C)C(=O)N[C@@H](CCC(=O)O)C(=O)N[C@@H](CCC(N)=O)C(=O)N[C@@H](CCC(=O)O)C(=O)N[C@@H](CCCNC(=N)N)C(=O)N[C@@H](CCC(N)=O)C(=O)N[C@@H](CCCCN)C(=O)N[C@@H](CCCCN)C(=O)N[C@@H](CCC(N)=O)C(=O)N[C@@H](CCCNC(=N)N)C(=O)N[C@@H](CCC(N)=O)C(=O)N[C@@H](CCC(N)=O)C(=O)N[C@@H](C)C(=O)N[C@@H](CCC(=O)O)C(=O)N[C@H](C(=O)N[C@@H](CC(N)=O)C(=O)NC(C)(C)C(=O)N[C@@H](CCC(N)=O)C(=O)N[C@H](C(=O)N[C@@H](CC(C)C)C(=O)N[C@@H](C)C(=O)N[C@@H](CCC(N)=O)C(=O)N[C@H](C(N)=O)C(C)C)[C@@H](C)CC)[C@@H](C)O)[C@@H](C)CC)[C@@H](C)CC)C(C)C)C(C)C) [SEQ ID NO: 76]
